In patent US20180230200A1 (CITY OF HOPE, published 2018):

Legend:
[1] = target: gH/gL/UL128/UL130/UL131A pentamer complex (PC) of HCMV strain TB40/E virus (human cytomegalovirus strain TB40/E); test: cell-based or functional assay
[2] = target: gH/gL/UL128/UL130/UL131A pentamer complex (PC) of HCMV strain TR virus (human cytomegalovirus strain TR); test: cell-based or functional assay
[3] = target: T1, UL128 expressed from MVA in BHK-21 cells (human cytomegalovirus, UniProt P16837 28-171); test: intracellular FC, MVA-infected BHK-21
T1 construct: whole, on cells
T1 sequence: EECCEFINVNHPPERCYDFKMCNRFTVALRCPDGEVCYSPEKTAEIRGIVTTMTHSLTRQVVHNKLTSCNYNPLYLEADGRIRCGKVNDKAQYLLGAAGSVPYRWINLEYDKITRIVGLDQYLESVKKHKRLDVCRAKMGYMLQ

[4] = target: T2, UL130 expressed from MVA in BHK-21 cells (human cytomegalovirus, UniProt P16772 1-214); test: intracellular FC, MVA-infected BHK-21
T2 construct: whole, on cells

[5] = target: T3, UL131A expressed from MVA in BHK-21 cells (human cytomegalovirus, UniProt F5HET4 19-129); test: intracellular FC, MVA-infected BHK-21
T3 construct: whole, on cells

[6] = target: T4, UL128/UL130 co-expressed from MVA in BHK-21 cells (human cytomegalovirus, UniProt P16837 28-171; P16772 1-214); test: intracellular FC, MVA-infected BHK-21
T4 construct: whole, on cells

[7] = target: T5, UL128/UL131A co-expressed from MVA in BHK-21 cells (human cytomegalovirus, UniProt P16837 28-171; F5HET4 19-129); test: intracellular FC, MVA-infected BHK-21
T5 construct: whole, on cells

[8] = target: T6, gH expressed from MVA in BHK-21 cells (human cytomegalovirus, UniProt P12824 24-743); test: intracellular FC, MVA-infected BHK-21
T6 construct: whole, on cells

[9] = target: T7, gH/gL co-expressed from MVA in BHK-21 cells (human cytomegalovirus, UniProt P12824 24-743; P16832 31-278); test: intracellular FC, MVA-infected BHK-21
T7 construct: whole, on cells

[10] = target: T8, gH/gL/UL128 co-expressed from MVA in BHK-21 cells (human cytomegalovirus, UniProt P12824 24-743; P16832 31-278; P16837 28-171); test: intracellular FC, MVA-infected BHK-21
T8 construct: whole, on cells

[11] = target: T9, gH/gL/UL130 co-expressed from MVA in BHK-21 cells (human cytomegalovirus, UniProt P12824 24-743; P16832 31-278; P16772 1-214); test: intracellular FC, MVA-infected BHK-21
T9 construct: whole, on cells

[12] = target: T10, gH/gL/UL131A co-expressed from MVA in BHK-21 cells (human cytomegalovirus, UniProt P12824 24-743; P16832 31-278; F5HET4 19-129); test: intracellular FC, MVA-infected BHK-21
T10 construct: whole, on cells

[13] = target: T11, gH/gL/UL128/UL130 co-expressed from MVA in BHK-21 cells (human cytomegalovirus, UniProt P12824 24-743; P16832 31-278; P16837 28-171; P16772 1-214); test: intracellular FC, MVA-infected BHK-21
T11 construct: whole, on cells

[14] = target: T12, gH/gL/UL128/UL131A co-expressed from MVA in BHK-21 cells (human cytomegalovirus, UniProt P12824 24-743; P16832 31-278; P16837 28-171; F5HET4 19-129); test: intracellular FC, MVA-infected BHK-21
T12 construct: whole, on cells

[15] = target: T13, gH/gL/UL128/UL130/UL131A pentamer complex expressed from MVA-PC in BHK-21 cells (human cytomegalovirus, UniProt P12824 24-743; P16832 31-278; P16837 28-171; P16772 1-214; F5HET4 19-129); test: FC, biotinylated NAb titrated on MVA-PC-infected BHK-21 (cell surface PC)
T13 construct: whole, on cells

[16] = target: T13, gH/gL/UL128/UL130/UL131A pentamer …; test: FC competition, MVA-PC BHK-21; unlabelled row Ab; competitor: biotinylated 1B2
[17] = target: T13, gH/gL/UL128/UL130/UL131A pentamer …; test: FC competition, MVA-PC BHK-21; unlabelled row Ab; competitor: biotinylated 12E2
[18] = target: T13, gH/gL/UL128/UL130/UL131A pentamer …; test: FC competition, MVA-PC BHK-21; unlabelled row Ab; competitor: biotinylated 13B5
[19] = target: T13, gH/gL/UL128/UL130/UL131A pentamer …; test: FC competition, MVA-PC BHK-21; unlabelled row Ab; competitor: biotinylated 21F6
[20] = target: T13, gH/gL/UL128/UL130/UL131A pentamer …; test: FC competition, MVA-PC BHK-21; unlabelled row Ab; competitor: biotinylated 18F10
[21] = target: T13, gH/gL/UL128/UL130/UL131A pentamer …; test: FC competition, MVA-PC BHK-21; unlabelled row Ab; competitor: biotinylated 54E11

B1: 54E11 (antibody, V domains shown)
VH: QIQLVQSGPELKKPGETVKISCKASGYTFTSYGMNWVKQAPGKGLKWMGWINTYTGEPTYADDFKGRFAFSLETSASTAYLQINNLKNEDTATYFCAREHYYGINPLLGCWGQGTTLTVSS
VL: DIQMTQTTSSLSASLGDRVTISCSASQGISNYLNWYQQKPDGTVKLLIYDTSSLHSGVPSRFSGSGSGTDYSLTISNLEPEDIATYYCQQYSKLPYTFGGGTKLEIK
notes: also called NAb 54E11
With B1 the “IC50, inhibition of TB40/E cell-to-cell spread in ARPE-19” value [1] was 17 µg/mL, the “IC50, neutralization of TB40/E infection of ARPE-19” value [1] was 0.0034 µg/mL and the “IC50, neutralization of TB40/E infection of CTB” value [1] was 0.0249 µg/mL. The “IC50, neutralization of TB40/E infection of HUVEC” value [1] was 0.0046 µg/mL, the “IC50, neutralization of TB40/E infection of MRC-5” value [1] was over 25 µg/mL and the “IC50, inhibition of TR cell-to-cell spread in ARPE-19” value [2] was 18 µg/mL. The “IC50, neutralization of TR infection of ARPE-19” value [2] was 0.0034 µg/mL, the “IC50, neutralization of TR infection of HUVEC” value [2] was 0.0059 µg/mL and the “IC50, neutralization of TR infection of MRC-5” value [2] was over 25 µg/mL. B1: no binding [3]; no binding [4]; no binding [5]. B1: no binding [6]; no binding [7]; no binding [8]. B1: no binding [9]; no binding [10]; no binding [11]. B1: no binding [12]; no binding [13]; no binding [14]. For the same binder, the EC50 [15] was 0.51 nM, the “Binding Inhibition (%)” value [16] was 0% and the “Binding Inhibition (%)” value [17] was 0%. For the same binder, the “Binding Inhibition (%)” value [18] was 0%, the “Binding Inhibition (%)” value [19] was 100% and the “Binding Inhibition (%)” value [20] was 0%. For the same binder, the “Binding Inhibition (%)” value [21] was 100%.

B2: 21F6 (antibody, V domains shown)
VH: QIQLVQSGPELKKPGETVKISCKASGYTFTSYGMNWVKQAPGKGLKWMGWINTYTGEPTYADDFKGRFAFSLETSASTAYLQINNLKNEDTATYFCAREHYYGINPLLGCWGQGTTLTVSS
VL: DIQMTQTTSSLSASLGDRVTISCSASQGISNYLNWYQQKPDGTVKLLIYDTSSLHSGVPSRFSGSGSGTDYSLTISNLEPEDIATYYCQQYSKLPYTFGGGTKLEIK
notes: also called NAb 21F6
With B2 the “IC50, inhibition of TB40/E cell-to-cell spread in ARPE-19” value [1] was 18 µg/mL, the “IC50, neutralization of TB40/E infection of ARPE-19” value [1] was 0.0026 µg/mL and the “IC50, neutralization of TB40/E infection of CTB” value [1] was 0.0307 µg/mL. The “IC50, neutralization of TB40/E infection of HUVEC” value [1] was 0.004 µg/mL, the “IC50, neutralization of TB40/E infection of MRC-5” value [1] was over 25 µg/mL and the “IC50, inhibition of TR cell-to-cell spread in ARPE-19” value [2] was 19 µg/mL. For the same binder, the “IC50, neutralization of TR infection of ARPE-19” value [2] was 0.0035 µg/mL, the “IC50, neutralization of TR infection of HUVEC” value [2] was 0.0059 µg/mL and the “IC50, neutralization of TR infection of MRC-5” value [2] was over 25 µg/mL. B2: no binding [3]; no binding [4]; no binding [5]. B2: no binding [6]; no binding [7]; no binding [8]. B2: no binding [9]; no binding [10]; no binding [11]. B2: no binding [12]; no binding [13]; no binding [14]. The EC50 [15] was 0.62 nM, the “Binding Inhibition (%)” value [16] was 0% and the “Binding Inhibition (%)” value [17] was 0%. The “Binding Inhibition (%)” value [18] was 0%, the “Binding Inhibition (%)” value [19] was 100% and the “Binding Inhibition (%)” value [20] was 0%. The “Binding Inhibition (%)” value [21] was 100%.
